The values that follow come from patent US20210349104A1 (MESO SCALE TECHNOLOGIES, published 2021).

The experiment has as its target T1, ACE2 (angiotensin-converting enzyme 2), labeled (human, UniProt Q9BYF1 18-740).
T1 construct: also called labeled ACE2
As to the kind of experiment: labeled ACE2 on immobilized Mixed Panel, ECL.

T1 sequence (Q9BYF1 18-740 limits assumed): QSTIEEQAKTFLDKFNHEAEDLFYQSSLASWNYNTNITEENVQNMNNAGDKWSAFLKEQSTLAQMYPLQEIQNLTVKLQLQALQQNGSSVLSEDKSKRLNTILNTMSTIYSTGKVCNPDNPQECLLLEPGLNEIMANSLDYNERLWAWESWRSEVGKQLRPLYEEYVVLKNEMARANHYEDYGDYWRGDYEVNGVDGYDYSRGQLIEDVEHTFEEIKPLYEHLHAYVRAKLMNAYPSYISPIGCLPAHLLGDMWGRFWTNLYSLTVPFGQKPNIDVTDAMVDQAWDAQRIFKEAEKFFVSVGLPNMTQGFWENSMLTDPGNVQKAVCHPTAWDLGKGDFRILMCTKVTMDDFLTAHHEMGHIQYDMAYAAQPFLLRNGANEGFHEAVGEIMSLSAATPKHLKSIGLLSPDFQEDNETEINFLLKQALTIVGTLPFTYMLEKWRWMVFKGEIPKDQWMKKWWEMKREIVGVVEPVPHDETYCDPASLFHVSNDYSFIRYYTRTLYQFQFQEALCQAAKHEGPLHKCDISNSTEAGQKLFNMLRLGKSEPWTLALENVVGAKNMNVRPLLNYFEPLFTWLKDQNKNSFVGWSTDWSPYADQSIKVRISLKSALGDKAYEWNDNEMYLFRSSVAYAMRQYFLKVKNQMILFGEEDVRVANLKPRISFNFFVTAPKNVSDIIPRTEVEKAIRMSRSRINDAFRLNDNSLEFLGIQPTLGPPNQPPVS

B1: HCoV-HKU1 S protein (other)
chain: AVIGDFNCTNFAINDLNTTVPRISEYVVDVSYGLGTYYILDRVYLNTTILFTGYFPKSGANFRDLSLKGTTYLSTLWYQKPFLSDFNNGIFSRVKNTKLYVNKTLYSEFSTIVIGSVFINNSYTIVVQPHNGVLEITACQYTMCEYPHTICKSKGSSRNESWHFDKSEPLCLFKKNFTYNVSTDWLYFHFYQERGTFYAYYADSGMPTTFLFSLYLGTLLSHYYVLPLTCNAISSNTDNETLQYWVTPLSKRQYLLKFDNRGVITNAVDCSSSFFSEIQCKTKSLLPNTGVYDLSGFTVKPVATVHRRIPDLPDCDIDKWLNNFNVPSPLNWERKIFSNCNFNLSTLLRLVHTDSFSCNNFDESKIYGSCFKSIVLDKFAIPNSRRSDLQLGSSGFLQSSNYKIDTTSSSCQLYYSLPAINVTINNYNPSSWNRRYGFNNFNLSSHSVVYSRYCFSVNNTFCPCAKPSFASSCKSHKPPSASCPIGTNYRSCESTTVLDHTDWCRCSCLPDPITAYDPRSCSQKKSLVGVGEHCAGFGVDEEKCGVLDGSYNVSCLCSTDAFLGWSYDTCVSNNRCNIFSNFILNGINSGTTCSNDLLQPNTEVFTDVCVDYDLYGITGQGIFKEVSAVYYNSWQNLLYDSNGNIIGFKDFVTNKTYNIFPCYAGRVSAAFHQNASSLALLYRNLKCSYVLNNISLTTQPYFDSYLGCVFNADNLTDYSVSSCALRMGSGFCVDYNSPSSSSSRRKRRSISASYRFVTFEPFNVSFVNDSIESVGGLYEIKIPTNFTIVGQEEFIQTNSPKVTIDCSLFVCSNYAACHDLLSEYGTFCDNINSILDEVNGLLDTTQLHVADTLMQGVTLSSNLNTNLHFDVDNINFKSLVGCLGPHCGSSSRSFFEDLLFDKVKLSDVGFVEAYNNCTGGSEIRDLLCVQSFNGIKVLPPILSESQISGYTTAATVAAMFPPWSAAAGIPFSLNVQYRINGLGVTMDVLNKNQKLIATAFNNALLSIQNGFSATNSALAKIQSVVNSNAQALNSLLQQLFNKFGAISSSLQEILSRLDALEAQVQIDRLINGRLTALNAYVSQQLSDISLVKFGAALAMEKVNECVKSQSPRINFCGNGNHILSLVQNAPYGLLFMHFSYKPISFKTVLVSPGLCISGDVGIAPKQGYFIKHNDHWMFTGSSYYYPEPISDKNVVFMNTCSVNFTKAPLVYLNHSVPKLSDFESELSHWFKNQTSIAPNLTLNLHTINATFLDLYYEMNLIQESIKSLN
notes: also called S protein from HCoV-HKU1
Regarding B1, the binding result is recorded as “no binding”.

B2: HCoV-OC43 S protein (other)
chain: AVIGDLKCTSDNINDKDTGPPPISTDTVDVTNGLGTYYVLDRVYLNTTLFLNGYYPTSGSTYRNMALKGSVLLSRLWFKPPFLSDFINGIFAKVKNTKVIKDRVMYSEFPAITIGSTFVNTSYSVVVQPRTINSTQDGDNKLQGLLEVSVCQYNMCEYPQTICHPNLGNHRKELWHLDTGVVSCLYKRNFTYDVNADYLYFHFYQEGGTFYAYFTDTGVVTKFLFNVYLGMALSHYYVMPLTCNSKLTLEYWVTPLTSRQYLLAFNQDGIIFNAEDCMSDFMSEIKCKTQSIAPPTGVYELNGYTVQPIADVYRRKPNLPNCNIEAWLNDKSVPSPLNWERKTFSNCNFNMSSLMSFIQADSFTCNNIDAAKIYGMCFSSITIDKFAIPNGRKVDLQLGNLGYLQSFNYRIDTTATSCQLYYNLPAANVSVSRFNPSTWNKRFGFIEDSVFKPRPAGVLTNHDVVYAQHCFKAPKNFCPCKLNGSCVGSGPGKNNGIGTCPAGTNYLTCDNLCTPDPITFTGTYKCPQTKSLVGIGEHCSGLAVKSDYCGGNSCTCRPQAFLGWSADSCLQGDKCNIFANFILHDVNSGLTCSTDLQKANTDIILGVCVNYDLYGILGQGIFVEVNATYYNSWQNLLYDSNGNLYGFRDYIINRTFMIRSCYSGRVSAAFHANSSEPALLFRNIKCNYVFNNSLTRQLQPINYFDSYLGCVVNAYNSTAISVQTCDLTVGSGYCVDYSKNRRSRGAITTGYRFTNFEPFTVNSVNDSLEPVGGLYEIQIPSEFTIGNMVEFIQTSSPKVTIDCAAFVCGDYAACKSQLVEYGSFCDNINAILTEVNELLDTTQLQVANSLMNGVTLSTKLKDGVNFNVDDINFSPVLGCLGSECSKASSRSAIEDLLFDKVKLSDVGFVEAYNNCTGGAEIRDLICVQSYKGIKVLPPLLSENQISGYTLAATSASLFPPWTAAAGVPFYLNVQYRINGLGVTMDVLSQNQKLIANAFNNALYAIQEGFDATNSALVKIQAVVNANAEALNNLLQQLSNRFGAISASLQEILSRLDALEAEAQIDRLINGRLTALNAYVSQQLSDSTLVKFSAAQAMEKVNECVKSQSSRINFCGNGNHIISLVQNAPYGLYFIHFSYVPTKYVTARVSPGLCIAGDRGIAPKSGYFVNVNNTWMYTGSGYYYPEPITENNVVVMSTCAVNYTKAPYVMLNTSIPNLPDFKEELDQWFKNQTSVAPDLSLDYINVTFLDLQVEMNRLQEAIKVLNQSYINLKDIGTYEY
notes: also called S protein from HCoV-OC43
On to B2, for which the binding result is given as “no binding”.

B3: MERS-CoV S protein (other)
chain: YVDVGPDSVKSACIEVDIQQTFFDKTWPRPIDVSKADGIIYPQGRTYSNITITYQGLFPYQGDHGDMYVYSAGHATGTTPQKLFVANYSQDVKQFANGFVVRIGAAANSTGTVIISPSTSATIRKIYPAFMLGSSVGNFSDGKMGRFFNHTLVLLPDGCGTLLRAFYCILEPRSGNHCPAGNSYTSFATYHTPATDCSDGNYNRNASLNSFKEYFNLRNCTFMYTYNITEDEILEWFGITQTAQGVHLFSSRYVDLYGGNMFQFATLPVYDTIKYYSIIPHSIRSIQSDRKAWAAFYVYKLQPLTFLLDFSVDGYIRRAIDCGFNDLSQLHCSYESFDVESGVYSVSSFEAKPSGSVVEQAEGVECDFSPLLSGTPPQVYNFKRLVFTNCNYNLTKLLSLFSVNDFTCSQISPAAIASNCYSSLILDYFSYPLSMKSDLSVSSAGPISQFNYKQSFSNPTCLILATVPHNLTTITKPLKYSYINKCSRFLSDDRTEVPQLVNANQYSPCVSIVPSTVWEDGDYYRKQLSPLEGGGWLVASGSTVAMTEQLQMGFGITVQYGTDTNSVCPKLEFANDTKIASQLGNCVEYSLYGVSGRGVFQNCTAVGVRQQRFVYDAYQNLVGYYSDDGNYYCLRACVSVPVSVIYDKETKTHATLFGSVACEHISSTMSQYSRSTRSMLKRRDSTYGPLQTPVGCVLGLVNSSLFVEDCKLPLGQSLCALPDTPSTLTPRSVRSVPGEMRLASIAFNHPIQVDQLNSSYFKLSIPTNFSFGVTQEYIQTTIQKVTVDCKQYVCNGFQKCEQLLREYGQFCSKINQALHGANLRQDDSVRNLFASVKSSQSSPIIPGFGGDFNLTLLEPVSISTGSRSARSAIEDLLFDKVTIADPGYMQGYDDCMQQGPASARDLICAQYVAGYKVLPPLMDVNMEAAYTSSLLGSIAGVGWTAGLSSFAAIPFAQSIFYRLNGVGITQQVLSENQKLIANKFNQALGAMQTGFTTTNEAFHKVQDAVNNNAQALSKLASELSNTFGAISASIGDIIQRLDVLEQDAQIDRLINGRLTTLNAFVAQQLVRSESAALSAQLAKDKVNECVKAQSKRSGFCGQGTHIVSFVVNAPNGLYFMHVGYYPSNHIEVVSAYGLCDAANPTNCIAPVNGYFIKTNNTRIVDEWSYTGSSFYAPEPITSLNTKYVAPQVTYQNISTNLPPPLLGNSTGIDFQDELDEFFKNVSTSIPNFGSLTQINTTLLDLTYEMLSLQQVVKALNESYIDLKELGNYTY
notes: also called S protein from MERS-CoV
B3: the binding result was “no binding”.
